According to PMC10397247:

How the values were obtained:
Assay in all cases: two-hybrid library CCmax;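 note: natural log of median RNA to DNA barcode read ratio; higher means stronger binding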
[1] = target: T1, 4H2948-AA; details: mean of both orientations
T1 chain: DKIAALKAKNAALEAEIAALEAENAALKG

[2] = target: T2, 4H3102-AA; details: mean of both orientations
T2 chain: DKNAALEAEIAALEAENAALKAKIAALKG

[3] = target: T3, 4H146-AA
T3 chain: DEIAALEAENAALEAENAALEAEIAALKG

[4] = target: T4, 4H656-AA; details: mean of both orientations
T4 chain: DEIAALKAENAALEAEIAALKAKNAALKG

[5] = target: T5, 4H1391-AA; details: mean of both orientations
T5 chain: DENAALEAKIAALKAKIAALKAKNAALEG

[6] = target: T6, 4H1809-AA; details: mean of both orientations
T6 chain: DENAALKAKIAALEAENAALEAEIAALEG

[7] = target: T7, 4H2991-AA; details: mean of both orientations
T7 chain: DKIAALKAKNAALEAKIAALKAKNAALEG

[8] = target: T8, 4H3709-AA; details: mean of both orientations
T8 chain: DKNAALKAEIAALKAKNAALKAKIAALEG

[9] = target: T9, 4H497-AA; details: mean of both orientations
T9 chain: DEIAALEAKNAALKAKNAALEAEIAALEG

[10] = target: T10, 4H428-AA; details: mean of both orientations
T10 chain: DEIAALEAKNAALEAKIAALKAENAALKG

[11] = target: T11, 4H3591-AA; details: mean of both orientations
T11 chain: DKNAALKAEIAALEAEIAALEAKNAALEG

[12] = target: T12, 4H971-AA
T12 chain: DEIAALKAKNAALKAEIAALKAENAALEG

[13] = target: T13, 4H2713-AA; details: mean of both orientations
T13 chain: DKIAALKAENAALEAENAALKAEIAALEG

[14] = target: T14, 4H3939-AA; details: mean of both orientations
T14 chain: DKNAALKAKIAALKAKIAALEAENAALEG

[15] = target: T15, 4H3920-AA; details: mean of both orientations
T15 chain: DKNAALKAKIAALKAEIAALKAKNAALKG

[16] = target: T16, 4H3446-AA; details: mean of both orientations
T16 chain: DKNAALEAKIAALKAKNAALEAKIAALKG

[17] = target: T17, 4H3121-AA; details: mean of both orientations
T17 chain: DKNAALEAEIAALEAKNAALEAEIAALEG

[18] = target: T18, 4H2742-AA; details: mean of both orientations
T18 chain: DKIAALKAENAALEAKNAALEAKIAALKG

[19] = target: T19, 4H478-AA; details: mean of both orientations
T19 chain: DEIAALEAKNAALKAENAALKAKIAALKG

[20] = target: T20, 4H1348-AA
T20 chain: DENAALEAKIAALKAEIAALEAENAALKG

[21] = target: T21, 4H675-AA; details: mean of both orientations
T21 chain: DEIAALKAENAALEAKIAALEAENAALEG

[22] = target: T22, 4H3417-AA; details: mean of both orientations
T22 chain: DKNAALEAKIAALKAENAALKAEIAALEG

[23] = target: T23, 4H1854-AA; details: mean of both orientations
T23 chain: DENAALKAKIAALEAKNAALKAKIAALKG

[24] = target: T24, 4H189-AA
T24 chain: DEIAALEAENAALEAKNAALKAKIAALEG

[25] = target: T25, 4H2283-AA; details: mean of both orientations
T25 chain: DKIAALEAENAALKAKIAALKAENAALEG

[26] = target: T26, 4H2248-AA; details: mean of both orientations
T26 chain: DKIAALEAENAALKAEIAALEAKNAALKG

[27] = target: T27, 4H3666-AA; details: mean of both orientations
T27 chain: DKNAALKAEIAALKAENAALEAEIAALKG

[28] = target: T28, 4H391-AA; details: mean of both orientations
T28 chain: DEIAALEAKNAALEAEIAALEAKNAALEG

[29] = target: T29, 4H3029-AA; details: mean of both orientations
T29 chain: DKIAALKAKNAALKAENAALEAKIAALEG

[30] = target: T30, 4H3066-AA; details: mean of both orientations
T30 chain: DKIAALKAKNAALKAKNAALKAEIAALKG

[31] = target: T31, 4H3628-AA; details: mean of both orientations
T31 chain: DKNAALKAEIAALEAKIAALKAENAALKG

[32] = target: T32, APC8516-AA; details: mean of both orientations
T32 chain: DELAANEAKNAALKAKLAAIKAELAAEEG

[33] = target: T33, APC9141-AA; details: mean of both orientations
T33 chain: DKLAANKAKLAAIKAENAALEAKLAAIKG

[34] = target: T34, APC5009-AA; details: mean of both orientations
T34 chain: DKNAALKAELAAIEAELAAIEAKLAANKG

[35] = target: T35, APC2556-AA; details: mean of both orientations
T35 chain: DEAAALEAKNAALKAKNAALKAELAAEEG

[36] = target: T36, APC2375-AA; details: mean of both orientations
T36 chain: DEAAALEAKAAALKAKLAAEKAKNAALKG

[37] = target: T37, APC2724-AA; details: mean of both orientations
T37 chain: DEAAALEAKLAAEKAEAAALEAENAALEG

[38] = target: T38, APC7524-AA; details: mean of both orientations
T38 chain: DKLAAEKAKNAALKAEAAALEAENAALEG

[39] = target: T39, APC6088-AA; details: mean of both orientations
T39 chain: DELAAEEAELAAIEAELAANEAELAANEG

[40] = target: T40, APC3354-AA; details: mean of both orientations
T40 chain: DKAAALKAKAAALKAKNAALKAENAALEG

[41] = target: T41, APC542-AA; details: mean of both orientations
T41 chain: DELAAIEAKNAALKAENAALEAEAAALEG

[42] = target: T42, APC2981-AA; details: mean of both orientations
T42 chain: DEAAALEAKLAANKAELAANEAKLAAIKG

[43] = target: T43, APC3881-AA; details: mean of both orientations
T43 chain: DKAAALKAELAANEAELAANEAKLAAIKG

[44] = target: T44, APC9182-AA; details: mean of both orientations
T44 chain: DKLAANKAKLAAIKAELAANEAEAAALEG

[45] = target: T45, APC2543-AA; details: mean of both orientations
T45 chain: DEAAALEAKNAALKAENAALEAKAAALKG

[46] = target: T46, APC2257-AA
T46 chain: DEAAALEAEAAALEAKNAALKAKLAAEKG

[47] = target: T47, APC3265-AA
T47 chain: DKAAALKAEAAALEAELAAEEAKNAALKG

[48] = target: T48, APC2811-AA; details: mean of both orientations
T48 chain: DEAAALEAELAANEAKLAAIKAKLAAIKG

[49] = target: T49, APC2474-AA; details: mean of both orientations
T49 chain: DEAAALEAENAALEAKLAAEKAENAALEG

[50] = target: T50, APC9806-AA; details: mean of both orientations
T50 chain: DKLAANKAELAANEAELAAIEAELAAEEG

[51] = target: T51, APC8401-AA; details: mean of both orientations
T51 chain: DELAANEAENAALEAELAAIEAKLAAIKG

[52] = target: T52, APC5531-AA; details: mean of both orientations
T52 chain: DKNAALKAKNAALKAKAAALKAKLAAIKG

[53] = target: T53, APC9291-AA; details: mean of both orientations
T53 chain: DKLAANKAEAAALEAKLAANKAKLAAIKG

[54] = target: T54, APC3323-AA; details: mean of both orientations
T54 chain: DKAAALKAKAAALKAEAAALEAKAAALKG

[55] = target: T55, APC4336-AA; details: mean of both orientations
T55 chain: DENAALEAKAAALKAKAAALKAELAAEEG

[56] = target: T56, APC4100-AA; details: mean of both orientations
T56 chain: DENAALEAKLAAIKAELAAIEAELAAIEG

DENAALEAKIAALKAEIAALEAENAALKG [4H1348-AA]
interaction score [1]: -1.13
interaction score [2]: -1.34
interaction score [3]: -2.73
interaction score [4]: -0.833
interaction score [5]: -0.755
interaction score [6]: -1.86
interaction score [7]: -1.75
interaction score [8]: -1.57
interaction score [9]: -2.02
interaction score [10]: -0.542
interaction score [11]: 0.665
interaction score [12]: -1.78
interaction score [13]: -1.2
interaction score [14]: 0.262
interaction score [15]: 1.37
interaction score [16]: -1.25
interaction score [17]: -1.43
interaction score [18]: -1.31
interaction score [19]: 0.507
interaction score [20]: 1.56
interaction score [21]: -1.36
interaction score [22]: -1.13
interaction score [23]: -1.01
interaction score [24]: -1.2
interaction score [25]: -1.14
interaction score [26]: -1.37
interaction score [27]: -1.46
interaction score [28]: -1.94
interaction score [29]: -1.57
interaction score [30]: -2.16
interaction score [31]: 2.05

DEAAALEAEAAALEAKNAALKAKLAAEKG [APC2257-AA]
interaction score [32]: -1.64
interaction score [33]: -1.37
interaction score [34]: -1.07
interaction score [35]: -1.99
interaction score [36]: -1.42
interaction score [37]: -1.47
interaction score [38]: -1.59
interaction score [39]: -1.24
interaction score [40]: -1.45
interaction score [41]: -1.54
interaction score [42]: -1.18
interaction score [43]: -1.31
interaction score [44]: -1.86
interaction score [45]: -1.02
interaction score [46]: -1.12
interaction score [47]: -1.43
interaction score [48]: 1.49
interaction score [49]: -1.46
interaction score [50]: -1.79
interaction score [51]: -1.32
interaction score [52]: -1.97
interaction score [53]: -1.61
interaction score [54]: -1.58
interaction score [55]: -1.71
interaction score [56]: -1.56
